Measured values from paper PMC7291142.

tested on: RSV Gag∆PR (Rous sarcoma virus (Prague C strain)); test: FA salt titration

Substance	Kd [mM]
MΨ-A197C	9.8
MΨ-G218C	700
MΨ-WT	0.23
MΨ-∆L3	31
MΨ-∆SL-B	0.096
